Laboratory results from patent US20240002547A1 (AEBI, published 2024).
Positions of bridges follow the written chain, without caps; N, C: chain ends. No end group written: not given here.

Molecular target: human eukaryotic elongation factor 2 (eEF2) (human, UniProt P13639 2-858)
Assay: peptide screening by the technique of WO 2007/010525

Binder | binding result
CSARWGPTMPWC (disulfide 1-12 (inferred)) [Tox1] | binds
CRRGSRASGAHC (disulfide 1-12 (inferred)) [Tox2] | binds
